The source of these data is the supplement of paper PMC9112550, “Optimization of the antimicrobial peptide Bac7 by deep mutational scanning” (BMC Biology, 2022).

The data set concerns Escherichia coli TOP10. The data set is described as follows: shrunken log2 fold change of peptide-encoding DNA abundance (4.5 h post-induction vs induction); higher = less antimicrobial activity (less host growth inhibition). Conditions: time post-induction: 4.5 h; library: site-saturation at positions 5, 18, 19, 20.
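Also: peptides expressed intracellularly from a pBAD plasmid library in pooled LB shake-flask culture, induced with 0.3% L-arabinose, DNA abundance read by NGS, three biological replicates, DESeq2 with apeglm shrinkage.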

Turning to RRIRMRPPRLPRPRPRPKDFPRP, the “shrunken log2 fold change” value was -0.025.

On to RRIRARPPRLPRPRPRPRWAPRP, for which the “shrunken log2 fold change” value came to 1.05.

For RRIRWRPPRLPRPRPRPCIWPRP, the “shrunken log2 fold change” value was 0.0256.

Regarding RRIRNRPPRLPRPRPRPALHPRP, the “shrunken log2 fold change” value was -0.296.

Consider RRIRARPPRLPRPRPRPGDFPRP, for which the “shrunken log2 fold change” value was 0.383.

Regarding RRIRSRPPRLPRPRPRPNCKPRP, the “shrunken log2 fold change” value was -0.228.

Consider RRIRSRPPRLPRPRPRPWIMPRP, for which the “shrunken log2 fold change” value is -0.572.

Regarding RRIRKRPPRLPRPRPRPRKNPRP, the “shrunken log2 fold change” value was found to be 0.876.

On to RRIRGRPPRLPRPRPRPHFAPRP, for which the “shrunken log2 fold change” value is 0.628.

For RRIRIRPPRLPRPRPRPRDVPRP, the “shrunken log2 fold change” value came out at 0.000408.

Turning to RRIRSRPPRLPRPRPRPTCAPRP, the “shrunken log2 fold change” value came out at 0.301.

Take RRIRARPPRLPRPRPRPRRIPRP: the “shrunken log2 fold change” value was -0.0273.

For RRIRRRPPRLPRPRPRPQAQPRP, the “shrunken log2 fold change” value turned out to be 0.0393.

On to RRIRMRPPRLPRPRPRPDFLPRP, for which the “shrunken log2 fold change” value is 0.0612.

As for RRIRNRPPRLPRPRPRPWGNPRP, the “shrunken log2 fold change” value is 0.00408.

As for RRIRMRPPRLPRPRPRPTEYPRP, the “shrunken log2 fold change” value was -0.289.

In the case of RRIRFRPPRLPRPRPRPNRAPRP, the “shrunken log2 fold change” value came to 0.091.

Consider RRIRSRPPRLPRPRPRPVWCPRP, for which the “shrunken log2 fold change” value amounted to 0.143.

Turning to RRIRARPPRLPRPRPRPLIPPRP, the “shrunken log2 fold change” value turned out to be 0.449.

On to RRIRWRPPRLPRPRPRPSHAPRP, for which the “shrunken log2 fold change” value is -0.0866.

Consider RRIRSRPPRLPRPRPRPLVEPRP, for which the “shrunken log2 fold change” value is 0.28.

As for RRIRRRPPRLPRPRPRPSDMPRP, the “shrunken log2 fold change” value is -0.463.

For RRIRNRPPRLPRPRPRPHTLPRP, the “shrunken log2 fold change” value is -0.39.

As to RRIRDRPPRLPRPRPRPCFIPRP, the “shrunken log2 fold change” value is -0.13.

In the case of RRIRYRPPRLPRPRPRPMFKPRP, the “shrunken log2 fold change” value is -0.825.

For RRIRHRPPRLPRPRPRPYSQPRP, the “shrunken log2 fold change” value was -0.177.

On to RRIRCRPPRLPRPRPRPSMYPRP, for which the “shrunken log2 fold change” value was -0.418.

As for RRIRYRPPRLPRPRPRPYERPRP, the “shrunken log2 fold change” value was -0.00804.

As to RRIRWRPPRLPRPRPRPRAEPRP, the “shrunken log2 fold change” value came out at 0.621.

On to RRIRFRPPRLPRPRPRPKSNPRP, for which the “shrunken log2 fold change” value is -0.358.

For the sequence RRIRTRPPRLPRPRPRPGCLPRP, the “shrunken log2 fold change” value came to 0.172.

Consider RRIRNRPPRLPRPRPRPMQRPRP, for which the “shrunken log2 fold change” value came to 0.00752.

For RRIRARPPRLPRPRPRPDMQPRP, the “shrunken log2 fold change” value was found to be 0.984.

Take RRIRKRPPRLPRPRPRPGQKPRP: the “shrunken log2 fold change” value was determined as 0.212.

For the sequence RRIRVRPPRLPRPRPRPPDPPRP, the “shrunken log2 fold change” value was found to be 0.342.

With RRIRGRPPRLPRPRPRPEAMPRP, the “shrunken log2 fold change” value came out at 0.59.

For RRIRIRPPRLPRPRPRPCGKPRP, the “shrunken log2 fold change” value was -0.025.

Regarding RRIRYRPPRLPRPRPRPWCGPRP, the “shrunken log2 fold change” value is -0.974.

Turning to RRIRRRPPRLPRPRPRPSKMPRP, the “shrunken log2 fold change” value worked out at 0.335.

Turning to RRIRLRPPRLPRPRPRPNHLPRP, the “shrunken log2 fold change” value turned out to be 0.0169.

As to RRIRQRPPRLPRPRPRPMQTPRP, the “shrunken log2 fold change” value is -0.0319.

As for RRIRVRPPRLPRPRPRPDVNPRP, the “shrunken log2 fold change” value was -0.172.

Consider RRIRMRPPRLPRPRPRPSKSPRP, for which the “shrunken log2 fold change” value amounted to 0.166.

Turning to RRIRQRPPRLPRPRPRPFSHPRP, the “shrunken log2 fold change” value was -0.127.

In the case of RRIRIRPPRLPRPRPRPIRYPRP, the “shrunken log2 fold change” value was -0.125.

With RRIRLRPPRLPRPRPRPEHSPRP, the “shrunken log2 fold change” value is -0.0185.

For the sequence RRIRSRPPRLPRPRPRPRSCPRP, the “shrunken log2 fold change” value was 0.108.

With RRIRHRPPRLPRPRPRPNRMPRP, the “shrunken log2 fold change” value amounted to 0.0166.

RRIRCRPPRLPRPRPRPSNRPRP: the “shrunken log2 fold change” value is -0.253.

Take RRIRKRPPRLPRPRPRPIENPRP: the “shrunken log2 fold change” value was -0.0721.
